{
  "source": "patent US20250289893A1",
  "about": "(OXFORD UNIVERSITY INNOVATION, published 2025)",
  "binders": {"B1": {"name": "16 (VR11834) (antibody, V domains shown)", "VH": "EVQLVESGGGLVKPGGSLKLSCAASGFTFSNYAMSWVRQTPEKRLEWVAAINSNGGSAYYPDTVKDRFTISRDNAKNTLYLQMSSLRSEDTALYYCARRFYYDYGWFAYWGQGTLVTVSS", "VL": "DIVLTQSPASLSASVGETVTITCRASENIDSYLAWYQQKQGKSPQLLVYAATLLADGVPSRFSGSGSGTQYSLKINSLQSEDVARYYCQHYYSSPWTFGGGTKLEIK", "notes": "also called OX16; antibody 16"}},
  "key": {"[1]": {"biological_target": "Chinese variant CD1a protein (human) (UniProt P06126)", "sequence (P06126 18-295, change not shown)": "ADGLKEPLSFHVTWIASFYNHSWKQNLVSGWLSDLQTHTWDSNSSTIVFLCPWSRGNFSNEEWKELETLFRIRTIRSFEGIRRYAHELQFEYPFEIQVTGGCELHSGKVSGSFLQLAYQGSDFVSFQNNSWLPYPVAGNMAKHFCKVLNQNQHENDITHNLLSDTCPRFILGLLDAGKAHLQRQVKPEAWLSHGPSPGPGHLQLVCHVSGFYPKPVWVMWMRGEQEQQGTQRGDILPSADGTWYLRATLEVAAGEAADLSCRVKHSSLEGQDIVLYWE", "assay": "ELISA, 1 µg/ml antibody"}, "[2]": {"biological_target": "T1, human CD1a protein (pool B) (human, UniProt P06126 18-295, limits assumed)", "T1 construct": "Recombinant protein of the ELISA (coated) and the Biacore T200 titration; whole entry named; also called human CD1a pool B; full length CD1a", "T1 sequence (P06126 18-295 limits assumed)": "as the sequence (P06126 18-295, change not shown) above", "assay": "ELISA, 0.1 µg/ml antibody", "method": "(§1) CD1a-specific antibodies were identified by ELISA. […] 20 μl/well of peroxidase-conjugated goat anti-species IgG Fc-specific F(ab′)2 fragment (Jackson ImmunoResearch), diluted 1:5000 in block buffer was added and incubated at room temperature for 1 hour, followed by washing with wash buffer.\nThe antibodies were titrated through a dilution series and compared to a control rabbit IgG antibody."}, "[3]": {"biological_target": "T2, human CD1a expressed on cells (human, UniProt P06126 17-327; P61769 21-119)", "T2 construct": "also called HEK - CD1a; C1R - CD1a", "assay": "flow cytometry, MOLT4 cells, 10 µg/ml antibody", "method": "(§2) CD1a-specific antibodies were identified by flow cytometry. Binding to proteins expressed on HEK, C1R and MOLT4 cell lines was assessed. […] The C1R-CD1a, C1R-empty vector and MOLT4 cell lines were washed in 1×PBS on the day required. All cell lines were counted and resuspended in 1×PBS and then stained for 30 minutes at 37° C. using the DiI or DiO cellular stains (Invitrogen). Cells were washed with flow cytometry buffer (1% bovine serum albumin, 2 mM EDTA and 0.1% sodium azide in PBS) before mixing 2 DiI-stained and DiO-stained populations together. The cells (20 μl/well) were then added to dilutions of antibody sample (B cell culture supernatant, TAP supernatant, clone supernatant, purified antibody solution) (20 μl/well) and incubated for 1 hour at 4° C. in a flow cytometry assay plate, before being washed with flow cytometry buffer. 10 μl/well of Alexafluor647-conjugated goat anti-species IgG Fc-specific F(ab′)2 fragment (Jackson ImmunoResearch), diluted 1:2500 in flow cytometry buffer, was added and incubated at 4° C. for 30 minutes, followed by washing with wash buffer. The fluorescence intensity was then measured on an iQue screener PLUS.\n(§3) Binding was quantified as fold change in fluorescence intensity geomean over background assessed by flow cytometry."}, "[4]": {"biological_target": "T3, Cynomolgus monkey CD1a protein (Cynomolgus monkey)", "T3 chain": "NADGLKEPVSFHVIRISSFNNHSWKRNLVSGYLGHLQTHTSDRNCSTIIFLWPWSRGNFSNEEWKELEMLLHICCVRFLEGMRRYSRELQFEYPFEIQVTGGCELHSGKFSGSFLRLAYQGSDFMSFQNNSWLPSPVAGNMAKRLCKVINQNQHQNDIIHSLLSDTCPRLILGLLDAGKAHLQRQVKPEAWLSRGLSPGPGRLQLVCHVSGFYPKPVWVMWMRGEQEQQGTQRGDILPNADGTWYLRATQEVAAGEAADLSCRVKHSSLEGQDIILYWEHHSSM", "assay": "ELISA, 1 µg/ml antibody"}, "[5]": {"biological_target": "T3, Cynomolgus monkey CD1a protein", "assay": "ELISA, 10 µg/ml antibody"}, "[6]": {"biological_target": "Chinese variant CD1a protein (human) (UniProt P06126)", "assay": "ELISA, 0.1 µg/ml antibody"}, "[7]": {"biological_target": "T3, Cynomolgus monkey CD1a protein", "assay": "ELISA, 0.01 µg/ml antibody"}, "[8]": {"biological_target": "T1, human CD1a protein (pool B)", "assay": "SPR (Biacore T200), antibody captured, human CD1a titrated, heterogeneous ligand model (kd 2)", "method": "(§4) The affinity of the purified antibodies to human CD1a was assessed using a Biacore T200 instrument (GE Healthcare) by capturing the antibody to an immobilized anti-species IgG F(ab′)2 followed by titration of human CD1a. Affinipure Goat anti-species IgG-F(ab′)2 fragment specific (Jackson ImmunoResearch) was immobilized on a CM5 Sensor Chip (GE Healthcare) via amine coupling chemistry to a capture level of ˜5000 response units (RUs). HBS-EP+ buffer (10 mM HEPES pH 7.4, 0.15 M NaCl, 3 mM EDTA, 0.05% Surfactant P20, GE Healthcare) was used as the running buffer with a flow rate of 10 μL/min. A 10 μL injection of test antibody at 0.5 μg/mL was used for capture by the immobilized Goat Anti-species Fab.\n(§5) The surface was regenerated between cycles by injection of 2×10 μL of 40 mM HCl, interspersed by a 10 μL injection of 5 mM NaOH at flowrate of 10 μL/min. Background subtraction binding curves were analyzed using the Biacore T200 evaluation software following standard procedures. Kinetic parameters were determined from the fitting algorithm. This assay was performed at the clone supernatant and purified antibody stage.\n(§6) Affinity was required to be <100 nM to be considered for progression."}, "[9]": {"biological_target": "T2, human CD1a expressed on cells", "assay": "flow cytometry, C1R cells, 10 µg/ml antibody", "method": "(§7) Binding to proteins expressed on HEK, C1R and MOLT4 cell lines was assessed. […] The C1R-CD1a, C1R-empty vector and MOLT4 cell lines were washed in 1×PBS on the day required. All cell lines were counted and resuspended in 1×PBS and then stained for 30 minutes at 37° C. using the DiI or DiO cellular stains (Invitrogen). Cells were washed with flow cytometry buffer (1% bovine serum albumin, 2 mM EDTA and 0.1% sodium azide in PBS) before mixing 2 DiI-stained and DiO-stained populations together. The cells (20 μl/well) were then added to dilutions of antibody sample (B cell culture supernatant, TAP supernatant, clone supernatant, purified antibody solution) (20 μl/well) and incubated for 1 hour at 4° C. in a flow cytometry assay plate, before being washed with flow cytometry buffer. 10 μl/well of Alexafluor647-conjugated goat anti-species IgG Fc-specific F(ab′)2 fragment (Jackson ImmunoResearch), diluted 1:2500 in flow cytometry buffer, was added and incubated at 4° C. for 30 minutes, followed by washing with wash buffer. The fluorescence intensity was then measured on an iQue screener PLUS.\nas §3"}, "[10]": {"biological_target": "T2, human CD1a expressed on cells", "assay": "flow cytometry, C1R cells, 0.1 µg/ml antibody", "method": "as §7, §3"}, "[11]": {"biological_target": "T4, Cynomolgus monkey CD1a expressed on HEK-293 cells (Cynomolgus monkey, UniProt A0A2K5VQ68 17-326)", "T4 sequence (A0A2K5VQ68 entry or part of it)": "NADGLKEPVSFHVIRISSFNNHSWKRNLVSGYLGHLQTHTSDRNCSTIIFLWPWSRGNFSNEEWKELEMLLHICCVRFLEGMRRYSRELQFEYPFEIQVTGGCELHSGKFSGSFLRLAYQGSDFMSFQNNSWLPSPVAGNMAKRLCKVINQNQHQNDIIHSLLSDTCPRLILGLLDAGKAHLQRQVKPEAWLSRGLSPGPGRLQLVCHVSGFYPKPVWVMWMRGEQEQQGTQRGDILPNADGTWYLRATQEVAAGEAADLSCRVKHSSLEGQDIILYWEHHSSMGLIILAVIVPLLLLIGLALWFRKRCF", "assay": "flow cytometry, HEK-293 cells, 10 µg/ml antibody", "method": "as §7, §3"}, "[12]": {"biological_target": "T1, human CD1a protein (pool B)", "assay": "SPR (Biacore T200), antibody captured, human CD1a titrated, heterogeneous ligand model (ka)", "method": "as §4, §6"}, "[13]": {"biological_target": "T1, human CD1a protein (pool B)", "assay": "SPR (Biacore T200), antibody captured, human CD1a titrated, heterogeneous ligand model (ka 2)", "method": "as §4, §5, §6"}, "[14]": {"biological_target": "T1, human CD1a protein (pool B)", "assay": "SPR (Biacore T200), antibody captured, human CD1a titrated, heterogeneous ligand model (kd)", "method": "as §4, §5, §6"}, "[15]": {"biological_target": "T2, human CD1a expressed on cells", "assay": "flow cytometry, MOLT4 cells, 1 µg/ml antibody", "method": "as §2, §3"}, "[16]": {"biological_target": "T3, Cynomolgus monkey CD1a protein", "assay": "ELISA, 0.1 µg/ml antibody"}, "[17]": {"biological_target": "T1, human CD1a protein (pool B)", "assay": "SPR (Biacore T200), antibody captured, human CD1a titrated, heterogeneous ligand model (KD2)", "method": "as §4, §5, §6"}, "[18]": {"biological_target": "T5, human CD1c expressed on HEK-293 cells (human, UniProt P29017 18-333; P61769 21-119)", "T5 construct": "also called HEK - CD1c", "assay": "flow cytometry, HEK-293 cells", "method": "as §2"}, "[19]": {"biological_target": "T6, human CD1b expressed on HEK-293 cells (human, UniProt P29016 18-333; P61769 21-119)", "T6 construct": "also called HEK - CD1b", "assay": "flow cytometry, HEK-293 cells", "method": "as §2"}, "[20]": {"biological_target": "T7, human CD1d expressed on HEK-293 cells (human, UniProt P15813 20-335; P61769 21-119)", "T7 construct": "also called HEK - CD1d", "assay": "flow cytometry, HEK-293 cells", "method": "as §2"}, "[21]": {"biological_target": "T1, human CD1a protein (pool B)", "assay": "SPR (Biacore T200), antibody captured, human CD1a titrated, heterogeneous ligand model (KD)", "method": "as §4, §6"}, "[22]": {"biological_target": "Chinese variant CD1a protein (human) (UniProt P06126)", "assay": "ELISA, 10 µg/ml antibody"}, "[23]": {"biological_target": "T4, Cynomolgus monkey CD1a expressed on …", "assay": "flow cytometry, HEK-293 cells, 0.01 µg/ml antibody", "method": "as §7, §3"}, "[24]": {"biological_target": "T2, human CD1a expressed on cells", "assay": "flow cytometry, HEK-293 cells, 10 µg/ml antibody", "method": "as §7\n(§8) HEK-293 cells were transiently transfected with human CD1a, CD1b, CD1c or CD1d and co-transfected with human β2M."}, "[25]": {"biological_target": "Chinese variant CD1a protein (human) (UniProt P06126)", "assay": "ELISA, 0.01 µg/ml antibody"}, "[26]": {"biological_target": "T4, Cynomolgus monkey CD1a expressed on …", "assay": "flow cytometry, HEK-293 cells, 1 µg/ml antibody", "method": "as §7, §3"}, "[27]": {"biological_target": "T2, human CD1a expressed on cells", "assay": "flow cytometry, MOLT4 cells, 0.1 µg/ml antibody", "method": "as §2, §3"}, "[28]": {"biological_target": "T2, human CD1a expressed on cells", "assay": "flow cytometry, C1R cells, 1 µg/ml antibody", "method": "as §7, §3"}, "[29]": {"biological_target": "T4, Cynomolgus monkey CD1a expressed on …", "assay": "flow cytometry, HEK-293 cells, 0.1 µg/ml antibody", "method": "as §7, §3"}, "[30]": {"biological_target": "T2, human CD1a expressed on cells", "assay": "flow cytometry, HEK-293 cells, 1 µg/ml antibody", "method": "as §7, §8"}, "[31]": {"biological_target": "chimeric CD1a pool B protein [human CD1a lipid binding domain, mouse CD1d Ig domain] (human; mouse, UniProt P06126 18-201; P11609 205-297, limits assumed)", "sequence (P06126 other isoform, or with tags, fused parts or gaps mutant limits assumed)": "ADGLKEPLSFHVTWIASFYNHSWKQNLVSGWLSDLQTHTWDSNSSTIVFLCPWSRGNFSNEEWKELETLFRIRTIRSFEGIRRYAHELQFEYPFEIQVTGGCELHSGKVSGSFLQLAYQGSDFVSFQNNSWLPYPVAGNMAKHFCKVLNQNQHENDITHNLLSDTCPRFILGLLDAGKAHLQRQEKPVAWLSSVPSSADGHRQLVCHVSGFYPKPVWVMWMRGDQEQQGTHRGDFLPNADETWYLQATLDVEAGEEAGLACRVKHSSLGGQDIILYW", "assay": "ELISA, 0.1 µg/ml antibody", "method": "as §1\nThe antibodies were titrated through a dilution series and compared to a control rabbit IgG antibody. […] Data shown for purified antibodies."}, "[32]": {"biological_target": "T2, human CD1a expressed on cells", "assay": "flow cytometry, HEK-293 cells, 0.1 µg/ml antibody", "method": "as §7, §8"}},
  "data": [
    {"binder": "B1", "values": [
      {"measurement": "Optical Density (OD)", "setting": "[1]", "value": 1.35, "unit": "OD"},
      {"measurement": "Optical Density (OD)", "setting": "[2]", "value": 0.59, "unit": "OD"},
      {"measurement": "Fluorescence Intensity Geomean (normalized to background)", "setting": "[3]", "value": 7.5, "unit": "fold over background"},
      {"measurement": "Optical Density (OD)", "setting": "[4]", "value": 0.58, "unit": "OD"},
      {"measurement": "Optical Density (OD)", "setting": "[5]", "value": 0.49, "unit": "OD"},
      {"measurement": "Optical Density (OD)", "setting": "[6]", "value": 1.3, "unit": "OD"},
      {"measurement": "Optical Density (OD)", "setting": "[7]", "value": 0.46, "unit": "OD"},
      {"measurement": "koff", "setting": "[8]", "value": 0.00658, "unit": "s⁻¹"},
      {"measurement": "Fluorescence Intensity Geomean (normalized to background)", "setting": "[9]", "value": 7, "unit": "fold over background"},
      {"measurement": "Fluorescence Intensity Geomean (normalized to background)", "setting": "[10]", "value": 10.2, "unit": "fold over background"},
      {"measurement": "Fluorescence Intensity Geomean (normalized to background)", "setting": "[11]", "value": 8.8, "unit": "fold over background"},
      {"measurement": "kon", "setting": "[12]", "value": "1.86e+06", "unit": "M⁻¹ s⁻¹"},
      {"measurement": "kon", "setting": "[13]", "value": 514000, "unit": "M⁻¹ s⁻¹"},
      {"measurement": "koff", "setting": "[14]", "value": 0.000729, "unit": "s⁻¹"},
      {"measurement": "Fluorescence Intensity Geomean (normalized to background)", "setting": "[15]", "value": 15, "unit": "fold over background"},
      {"measurement": "Optical Density (OD)", "setting": "[16]", "value": 0.57, "unit": "OD"},
      {"measurement": "Kd", "setting": "[17]", "value": 12.8, "unit": "nM"},
      {"measurement": "binding result", "setting": "[18]", "value": "no binding"},
      {"measurement": "binding result", "setting": "[19]", "value": "no binding"},
      {"measurement": "binding result", "setting": "[20]", "value": "no binding"},
      {"measurement": "Kd", "setting": "[21]", "value": 0.392, "unit": "nM"},
      {"measurement": "Optical Density (OD)", "setting": "[22]", "value": 1.44, "unit": "OD"},
      {"measurement": "Fluorescence Intensity Geomean (normalized to background)", "setting": "[23]", "value": 6.9, "unit": "fold over background"},
      {"measurement": "Fluorescence Intensity Geomean (normalized to background)", "setting": "[24]", "value": 10.2, "unit": "fold over background"},
      {"measurement": "Optical Density (OD)", "setting": "[25]", "value": 1.01, "unit": "OD"},
      {"measurement": "Fluorescence Intensity Geomean (normalized to background)", "setting": "[26]", "value": 7.6, "unit": "fold over background"},
      {"measurement": "Fluorescence Intensity Geomean (normalized to background)", "setting": "[27]", "value": 14.4, "unit": "fold over background"},
      {"measurement": "Fluorescence Intensity Geomean (normalized to background)", "setting": "[28]", "value": 10.1, "unit": "fold over background"},
      {"measurement": "Fluorescence Intensity Geomean (normalized to background)", "setting": "[29]", "value": 8.5, "unit": "fold over background"},
      {"measurement": "Fluorescence Intensity Geomean (normalized to background)", "setting": "[30]", "value": 19.6, "unit": "fold over background"},
      {"measurement": "Optical Density (OD)", "setting": "[31]", "value": 0.7, "unit": "OD"},
      {"measurement": "Fluorescence Intensity Geomean (normalized to background)", "setting": "[32]", "value": 12.9, "unit": "fold over background"}
    ]}
  ]
}
